Measured values from PMC5582869.

B1: human ZDHHC6 (WT), Myc-tagged [human] / human ZDHHC6 (WT), Myc-tagged [human] (parent)
chain 1: MGTFCSVIKFENLQELKRLCHWGPIIALGVIAICSTMAMIDSVLWYWPLHTTGGSVNFIMLINWTVMILYNYFNAMFVGPGFVPLGWKPEISQDTMYLQYCKVCQAYKAPRSHHCRKCNRCVMKMDHHCPWINNCCGYQNHASFTLFLLLAPLGCIHAAFIFVMTMYTQLYHRLSFGWNTVKIDMSAARRDPLPIVPFGLAAFATTLFALGLALGTTIAVGMLFFIQMKIILRNKTSIESWIEEKAKDRIQYYQLDEVFVFPYDMGSRWRNFKQVFTWSGVPEGDGLEWPVREGCHQYSLTIEQLKQKADKRVRSVRYKVIEDYSGACCPLNKGIKTFFTSPCTEEPRIQLQKGEFILATRGLRYWLYGDKILDDSFIEGVSRIRGWFPRKCVEKCPCDAETDQAPEGEKKNR
chain 2: B1 chain 1

Variants of: B1
Assay: co-immunoprecipitation (IP with myc antibodies, anti-GFP immunoblot, densitometry)
Conditions: HeLa cells transfected for 24 hr, n = 4, parent: 100, read off a plot

| percent of parent | Variant |
| --- | --- |
| 39 % of WT | chain 1 MGTFCSVIKFENLQELKRLCHWGPIIALGVIAICSTMAMIDSVLWYWPLHTTGGSVNFIMLINWTVMILYNYFNAMFVGPGFVPLGWKPEISQDTMYLQYCKVCQAYKAPRSHHCRKCNRCVMKMDHHCPWINNCCGYQNHASFTLFLLLAPLGCIHAAFIFVMTMYTQLYHRLSFGWNTVKIDMSAARRDPLPIVPFGLAAFATTLFALGLALGTTIAVGMLFFIQMKIILRNKTSIESWIEEKAKDRIQYYQLDEVFVFPYDMGSRWRNFKQVFTWSGVPEGDGLEWPVREGCHQYSLTIEQLKQKADKRVRSVRYKVIEDYSGAAAPLNKGIKTFFTSPATEEPRIQLQKGEFILATRGLRYWLYGDKILDDSFIEGVSRIRGWFPRKCVEKCPCDAETDQAPEGEKKNR [chain 1 C328A C329A C343A] |
